Results published in the supplement of paper PMC10724198.
± gives the standard deviation of the averaged measurements.

Assays:
Saccharomyces cerevisiae [1] = assay: protein stability index of tFT-peptide fusion (C-terminal peptide) (PSI (0-1 scale)); higher = more stable (slower turnover); details: genetic background: wild type; temperature: 30 C
Saccharomyces cerevisiae [2] = assay: as above
Method: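 MPS profiling in S. cerevisiae of the tFT-X12 degron library: putative degron peptides plus stable controls, 12 aa, fused to the C-terminus of a sfGFP-mCherry timer. Cells are FACS-sorted into 8 mCherry/sfGFP bins and deep-sequenced. PSI runs from 0 (unstable) to 1 (stable). Backgrounds are wild type, das1Δ and doa10Δ at 30 °C, and wild type, das1Δ, cdc34-1 and cdc53-1 at 37 °C; 2-3 technical replicates each.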

[3] = genetic background: cdc34-1, temperature: 37 C
[4] = genetic background: cdc53-1, temperature: 37 C
[5] = genetic background: das1 deletion, temperature: 30 C
[6] = genetic background: das1 deletion, temperature: 37 C
[7] = genetic background: doa10 deletion, temperature: 30 C
[8] = genetic background: wild type, temperature: 30 C
[9] = genetic background: wild type, temperature: 37 C
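Note: PSI is a weighted mean of sequencing reads over stability bins, variants kept only with over 10 reads, mCherry proximal and sfGFP distal, peptide attached via GGGS linker.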

## WVGVVLLSVVGG
Saccharomyces cerevisiae [1]
  protein stability index: 0.279 ± 0.032
Saccharomyces cerevisiae [2]; [3]
  protein stability index: 0.161 ± 0.016
Saccharomyces cerevisiae [2]; [4]
  protein stability index: 0.249 ± 0.008
Saccharomyces cerevisiae [2]; [5]
  protein stability index: 0.2 ± 0.032
Saccharomyces cerevisiae [2]; [6]
  protein stability index: 0.344 ± 0.0057
Saccharomyces cerevisiae [2]; [7]
  protein stability index: 0.164 ± 0.008
Saccharomyces cerevisiae [2]; [8]
  protein stability index: 0.183 ± 0.025
Saccharomyces cerevisiae [2]; [9]
  protein stability index: 0.32339 ± 0.00026

## LLVFWRLWWSLS
Saccharomyces cerevisiae [1]
  protein stability index: 0.157 ± 0.0075
Saccharomyces cerevisiae [2]; [3]
  protein stability index: 0.248 ± 0.035
Saccharomyces cerevisiae [2]; [4]
  protein stability index: 0.334 ± 0.011
Saccharomyces cerevisiae [2]; [5]
  protein stability index: 0.251 ± 0.034
Saccharomyces cerevisiae [2]; [6]
  protein stability index: 0.429 ± 0.028
Saccharomyces cerevisiae [2]; [7]
  protein stability index: 0.081 ± 0.026
Saccharomyces cerevisiae [2]; [8]
  protein stability index: 0.0903 ± 0.018
Saccharomyces cerevisiae [2]; [9]
  protein stability index: 0.128 ± 0.007

## VLFFLVTSSVYF
Saccharomyces cerevisiae [1]
  protein stability index: 0.269 ± 0.04
Saccharomyces cerevisiae [2]; [3]
  protein stability index: 0.124 ± 0.036
Saccharomyces cerevisiae [2]; [4]
  protein stability index: 0.263 ± 0.03
Saccharomyces cerevisiae [2]; [5]
  protein stability index: 0.201 ± 0.031
Saccharomyces cerevisiae [2]; [6]
  protein stability index: 0.37 ± 0.0049
Saccharomyces cerevisiae [2]; [7]
  protein stability index: 0.159 ± 0.0068
Saccharomyces cerevisiae [2]; [8]
  protein stability index: 0.187 ± 0.0095
Saccharomyces cerevisiae [2]; [9]
  protein stability index: 0.327 ± 0.0083

## RWELASKCRLCV
Saccharomyces cerevisiae [1]
  protein stability index: 0.296 ± 0.04
Saccharomyces cerevisiae [2]; [3]
  protein stability index: 0.563 ± 0.0077
Saccharomyces cerevisiae [2]; [4]
  protein stability index: 0.6716 ± 0.0053
Saccharomyces cerevisiae [2]; [5]
  protein stability index: 0.563 ± 0.021
Saccharomyces cerevisiae [2]; [6]
  protein stability index: 0.7123 ± 0.0068
Saccharomyces cerevisiae [2]; [7]
  protein stability index: 0.148 ± 0.011
Saccharomyces cerevisiae [2]; [8]
  protein stability index: 0.16 ± 0.029
Saccharomyces cerevisiae [2]; [9]
  protein stability index: 0.304 ± 0.061

## CLISILLFLCFT
Saccharomyces cerevisiae [1]
  protein stability index: 0.4162 ± 0.0015
Saccharomyces cerevisiae [2]; [3]
  protein stability index: 0.439 ± 0.029
Saccharomyces cerevisiae [2]; [4]
  protein stability index: 0.509 ± 0.074
Saccharomyces cerevisiae [2]; [5]
  protein stability index: 0.392 ± 0.014
Saccharomyces cerevisiae [2]; [6]
  protein stability index: 0.459 ± 0.037
Saccharomyces cerevisiae [2]; [7]
  protein stability index: 0.376 ± 0.021
Saccharomyces cerevisiae [2]; [8]
  protein stability index: 0.39 ± 0.021
Saccharomyces cerevisiae [2]; [9]
  protein stability index: 0.446 ± 0.0076

## RLLCLARMRGLH
Saccharomyces cerevisiae [1]
  protein stability index: 0.396 ± 0.2
Saccharomyces cerevisiae [2]; [3]
  protein stability index: 0.6854 ± 0.0031
Saccharomyces cerevisiae [2]; [4]
  protein stability index: 0.714 ± 0.02
Saccharomyces cerevisiae [2]; [5]
  protein stability index: 0.631 ± 0.068
Saccharomyces cerevisiae [2]; [6]
  protein stability index: 0.728 ± 0.037
Saccharomyces cerevisiae [2]; [7]
  protein stability index: 0.341 ± 0.036
Saccharomyces cerevisiae [2]; [8]
  protein stability index: 0.337 ± 0.022
Saccharomyces cerevisiae [2]; [9]
  protein stability index: 0.579 ± 0.024

## PRFWFYLSYSVH
Saccharomyces cerevisiae [1]
  protein stability index: 0.431 ± 0.032
Saccharomyces cerevisiae [2]; [3]
  protein stability index: 0.429 ± 0.044
Saccharomyces cerevisiae [2]; [4]
  protein stability index: 0.514 ± 0.012
Saccharomyces cerevisiae [2]; [5]
  protein stability index: 0.373 ± 0.044
Saccharomyces cerevisiae [2]; [6]
  protein stability index: 0.533 ± 0.015
Saccharomyces cerevisiae [2]; [7]
  protein stability index: 0.3014 ± 0.0016
Saccharomyces cerevisiae [2]; [8]
  protein stability index: 0.344 ± 0.02
Saccharomyces cerevisiae [2]; [9]
  protein stability index: 0.493 ± 0.01

## TFLFPLPFLFFI
Saccharomyces cerevisiae [1]
  protein stability index: 0.0963 ± 0.016
Saccharomyces cerevisiae [2]; [3]
  protein stability index: 0.0467 ± 0.0054
Saccharomyces cerevisiae [2]; [4]
  protein stability index: 0.0387 ± 0.0025
Saccharomyces cerevisiae [2]; [5]
  protein stability index: 0.102 ± 0.019
Saccharomyces cerevisiae [2]; [6]
  protein stability index: 0.119 ± 0.03
Saccharomyces cerevisiae [2]; [7]
  protein stability index: 0.29 ± 0.014
Saccharomyces cerevisiae [2]; [8]
  protein stability index: 0.0685 ± 0.02
Saccharomyces cerevisiae [2]; [9]
  protein stability index: 0.101 ± 0.0099

## HILRLVYFIVYE
Saccharomyces cerevisiae [1]
  protein stability index: 0.4189 ± 0.003
Saccharomyces cerevisiae [2]; [3]
  protein stability index: 0.402 ± 0.01
Saccharomyces cerevisiae [2]; [4]
  protein stability index: 0.533 ± 0.028
Saccharomyces cerevisiae [2]; [5]
  protein stability index: 0.316 ± 0.044
Saccharomyces cerevisiae [2]; [6]
  protein stability index: 0.504 ± 0.0089
Saccharomyces cerevisiae [2]; [7]
  protein stability index: 0.264 ± 0.01
Saccharomyces cerevisiae [2]; [8]
  protein stability index: 0.293 ± 0.015
Saccharomyces cerevisiae [2]; [9]
  protein stability index: 0.554 ± 0.017

## GSWGGGWRYVGW
Saccharomyces cerevisiae [1]
  protein stability index: 0.734 ± 0.033
Saccharomyces cerevisiae [2]; [3]
  protein stability index: 0.761 ± 0.037
Saccharomyces cerevisiae [2]; [4]
  protein stability index: 0.792 ± 0.016
Saccharomyces cerevisiae [2]; [5]
  protein stability index: 0.663 ± 0.012
Saccharomyces cerevisiae [2]; [6]
  protein stability index: 0.7947 ± 0.0036
Saccharomyces cerevisiae [2]; [7]
  protein stability index: 0.664 ± 0.037
Saccharomyces cerevisiae [2]; [8]
  protein stability index: 0.685 ± 0.023
Saccharomyces cerevisiae [2]; [9]
  protein stability index: 0.759 ± 0.011

## PLSDPLRVILIM
Saccharomyces cerevisiae [1]
  protein stability index: 0.443 ± 0.063
Saccharomyces cerevisiae [2]; [3]
  protein stability index: 0.55 ± 0.016
Saccharomyces cerevisiae [2]; [4]
  protein stability index: 0.633 ± 0.06
Saccharomyces cerevisiae [2]; [5]
  protein stability index: 0.501 ± 0.0089
Saccharomyces cerevisiae [2]; [6]
  protein stability index: 0.627 ± 0.014
Saccharomyces cerevisiae [2]; [7]
  protein stability index: 0.188 ± 0.0023
Saccharomyces cerevisiae [2]; [8]
  protein stability index: 0.22 ± 0.023
Saccharomyces cerevisiae [2]; [9]
  protein stability index: 0.328 ± 0.017

## VVTLHISLFYPG
Saccharomyces cerevisiae [1]
  protein stability index: 0.479 ± 0.023
Saccharomyces cerevisiae [2]; [3]
  protein stability index: 0.447 ± 0.033
Saccharomyces cerevisiae [2]; [4]
  protein stability index: 0.511 ± 0.018
Saccharomyces cerevisiae [2]; [5]
  protein stability index: 0.406 ± 0.031
Saccharomyces cerevisiae [2]; [6]
  protein stability index: 0.5 ± 0.0056
Saccharomyces cerevisiae [2]; [7]
  protein stability index: 0.418 ± 0.06
Saccharomyces cerevisiae [2]; [8]
  protein stability index: 0.415 ± 0.029
Saccharomyces cerevisiae [2]; [9]
  protein stability index: 0.461 ± 0.019

## LILFMLLSFLTT
Saccharomyces cerevisiae [1]
  protein stability index: 0.373 ± 0.032
Saccharomyces cerevisiae [2]; [3]
  protein stability index: 0.371 ± 0.013
Saccharomyces cerevisiae [2]; [4]
  protein stability index: 0.409 ± 0.042
Saccharomyces cerevisiae [2]; [5]
  protein stability index: 0.294 ± 0.028
Saccharomyces cerevisiae [2]; [6]
  protein stability index: 0.419 ± 0.018
Saccharomyces cerevisiae [2]; [7]
  protein stability index: 0.281 ± 0.016
Saccharomyces cerevisiae [2]; [8]
  protein stability index: 0.293 ± 0.025
Saccharomyces cerevisiae [2]; [9]
  protein stability index: 0.3954 ± 0.0026

## GGGWAVLLWVQV
Saccharomyces cerevisiae [1]
  protein stability index: 0.406 ± 0.022
Saccharomyces cerevisiae [2]; [3]
  protein stability index: 0.387 ± 0.019
Saccharomyces cerevisiae [2]; [4]
  protein stability index: 0.457 ± 0.043
Saccharomyces cerevisiae [2]; [5]
  protein stability index: 0.339 ± 0.029
Saccharomyces cerevisiae [2]; [6]
  protein stability index: 0.476 ± 0.0087
Saccharomyces cerevisiae [2]; [7]
  protein stability index: 0.29 ± 0.01
Saccharomyces cerevisiae [2]; [8]
  protein stability index: 0.317 ± 0.017
Saccharomyces cerevisiae [2]; [9]
  protein stability index: 0.442 ± 0.007

## LGIPKLLCFVCT
Saccharomyces cerevisiae [1]
  protein stability index: 0.386 ± 0.019
Saccharomyces cerevisiae [2]; [3]
  protein stability index: 0.424 ± 0.011
Saccharomyces cerevisiae [2]; [4]
  protein stability index: 0.432 ± 0.0061
Saccharomyces cerevisiae [2]; [5]
  protein stability index: 0.304 ± 0.023
Saccharomyces cerevisiae [2]; [6]
  protein stability index: 0.465 ± 0.02
Saccharomyces cerevisiae [2]; [7]
  protein stability index: 0.248 ± 0.0065
Saccharomyces cerevisiae [2]; [8]
  protein stability index: 0.29 ± 0.019
Saccharomyces cerevisiae [2]; [9]
  protein stability index: 0.421 ± 0.017

## LVMYRSALIRGH
Saccharomyces cerevisiae [1]
  protein stability index: 0.462 ± 0.05
Saccharomyces cerevisiae [2]; [3]
  protein stability index: 0.526 ± 0.039
Saccharomyces cerevisiae [2]; [4]
  protein stability index: 0.529 ± 0.042
Saccharomyces cerevisiae [2]; [5]
  protein stability index: 0.445 ± 0.0092
Saccharomyces cerevisiae [2]; [6]
  protein stability index: 0.5693 ± 0.0033
Saccharomyces cerevisiae [2]; [7]
  protein stability index: 0.3624 ± 0.00052
Saccharomyces cerevisiae [2]; [8]
  protein stability index: 0.396 ± 0.03
Saccharomyces cerevisiae [2]; [9]
  protein stability index: 0.525 ± 0.01

## WAIVVLVCFLRL
Saccharomyces cerevisiae [1]
  protein stability index: 0.343 ± 0.017
Saccharomyces cerevisiae [2]; [3]
  protein stability index: 0.283 ± 0.011
Saccharomyces cerevisiae [2]; [4]
  protein stability index: 0.299 ± 0.0052
Saccharomyces cerevisiae [2]; [5]
  protein stability index: 0.277 ± 0.022
Saccharomyces cerevisiae [2]; [6]
  protein stability index: 0.388 ± 0.017
Saccharomyces cerevisiae [2]; [7]
  protein stability index: 0.332 ± 0.024
Saccharomyces cerevisiae [2]; [8]
  protein stability index: 0.277 ± 0.019
Saccharomyces cerevisiae [2]; [9]
  protein stability index: 0.362 ± 0.011

## GMMLLRFIIRWY
Saccharomyces cerevisiae [1]
  protein stability index: 0.173 ± 0.045
Saccharomyces cerevisiae [2]; [3]
  protein stability index: 0.0773 ± 0.026
Saccharomyces cerevisiae [2]; [4]
  protein stability index: 0.15 ± 0.027
Saccharomyces cerevisiae [2]; [5]
  protein stability index: 0.141 ± 0.04
Saccharomyces cerevisiae [2]; [6]
  protein stability index: 0.268 ± 0.0083
Saccharomyces cerevisiae [2]; [7]
  protein stability index: 0.138 ± 0.0027
Saccharomyces cerevisiae [2]; [8]
  protein stability index: 0.134 ± 0.03
Saccharomyces cerevisiae [2]; [9]
  protein stability index: 0.212 ± 0.0061

## RVGALLAVTCPA
Saccharomyces cerevisiae [1]
  protein stability index: 0.446 ± 0.0093
Saccharomyces cerevisiae [2]; [3]
  protein stability index: 0.435 ± 0.035
Saccharomyces cerevisiae [2]; [4]
  protein stability index: 0.47214 ± 0.00033
Saccharomyces cerevisiae [2]; [5]
  protein stability index: 0.308 ± 0.025
Saccharomyces cerevisiae [2]; [6]
  protein stability index: 0.5127 ± 0.0033
Saccharomyces cerevisiae [2]; [7]
  protein stability index: 0.262 ± 0.0067
Saccharomyces cerevisiae [2]; [8]
  protein stability index: 0.302 ± 0.036
Saccharomyces cerevisiae [2]; [9]
  protein stability index: 0.4766 ± 0.0026

## DFIVVIRFIQII
Saccharomyces cerevisiae [1]
  protein stability index: 0.232 ± 0.017
Saccharomyces cerevisiae [2]; [3]
  protein stability index: 0.268 ± 0.012
Saccharomyces cerevisiae [2]; [4]
  protein stability index: 0.376 ± 0.009
Saccharomyces cerevisiae [2]; [5]
  protein stability index: 0.266 ± 0.023
Saccharomyces cerevisiae [2]; [6]
  protein stability index: 0.3971 ± 0.0035
Saccharomyces cerevisiae [2]; [7]
  protein stability index: 0.1447 ± 0.001
Saccharomyces cerevisiae [2]; [8]
  protein stability index: 0.154 ± 0.027
Saccharomyces cerevisiae [2]; [9]
  protein stability index: 0.235 ± 0.0043
